One molecule from PMC3325211, “Mutations in MITF and PAX3 Cause “Splashed White” and Other White Spotting Phenotypes in Horses” can be followed below.

In the series the target is MITF N310S (DNA-binding fragment) (UniProt Q95MD1 112-207, N149S). Briefly: EMSA; 5 mM MgCl2; 2.0 uM protein end point; reduced by about 80%; 20 mM Tris, 50 mM NaCl, 5 mM MgCl2, 1 mM DTT, 33 ug/ml BSA, pH 7.4, on ice 30 min; 6% native PAGE in 0.5x TBE. As to conditions: protein: recombinant; (Ni-NTA purified); chain copies: 2; label: radioactive label. (In general: A gel shift assay detects complexes by their altered migration in electrophoresis.)
Chain of MITF N310S (DNA-binding fragment) (Q95MD1 entry or part of it N149S | N310S N310S): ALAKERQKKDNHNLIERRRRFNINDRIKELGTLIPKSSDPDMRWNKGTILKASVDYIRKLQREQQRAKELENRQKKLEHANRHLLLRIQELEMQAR

B1: M-box oligonucleotide (dsDNA)
DNA 1: GGAAAGTTAGTCATGTGCTTTTCAGAAGA
DNA 2: TCTTCTGAAAAGCACATGACTAACTTTCC
In the case of B1, the binding signal is ~20 % of wild-type binding.
